Test results published in article doi:10.1101/2020.12.04.411645.

Target: MBP-tagged full-length CYRI-A (mouse) (UniProt Q8BHZ0)
Experiment: SPR

MBP-tagged full-length CYRI-A (mouse), sequence (Q8BHZ0 whole entry): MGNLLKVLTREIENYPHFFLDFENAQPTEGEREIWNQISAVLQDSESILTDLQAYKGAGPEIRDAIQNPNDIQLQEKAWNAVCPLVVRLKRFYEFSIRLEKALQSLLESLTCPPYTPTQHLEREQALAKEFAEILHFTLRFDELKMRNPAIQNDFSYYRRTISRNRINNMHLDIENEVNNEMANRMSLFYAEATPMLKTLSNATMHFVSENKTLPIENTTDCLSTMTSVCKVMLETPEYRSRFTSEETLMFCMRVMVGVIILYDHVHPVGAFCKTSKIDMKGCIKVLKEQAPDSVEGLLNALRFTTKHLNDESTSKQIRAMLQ

Kd: 2470 nM
Substance: untagged full-length RAC1 Q61L (from UniProt P63000 1-192) (enzyme; other documents disagree on this pair)
